# B1: ZNF449 (parent)
# chain: HTGERPYECTVCKKRFTRRSHLIG
# B2: C22orf15 (parent)
# chain: ITQSWQVSVRVQPRGRAHLLPNPY
# Variants of: B1
# Assay: protein stability index of a GFP-peptide fusion (GPS, HEK-293T) (PSI 1-6); higher = more stable
# Settings: c terminus: a fixed tail appended
# 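Note: lentivirally expressed fusions sorted by FACS into six bins by GFP to DsRed ratio, PSI derived from sequencing read proportions per bin multiplied by bin number.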
row,Variant,protein stability index
1,G24Y,2.9
2,G24W,2.53

# Variants of: B2
# Assay: as above
# Settings: c terminus: a fixed tail appended
row,Variant,protein stability index
1,R14D,1.87
2,R14I,1.54
3,R14E,2.73
4,R14K,2.25
5,R14F,1.78
6,R14P,1.68
7,R14Y,1.85
8,R14A,3.37
9,R14L,2.15
10,R14Q,2.15
11,R14H,2
12,R14N,1.98
13,Q6T,1.77
14,Q6E,1.92
15,Q6Y,1.96
16,Q6A,1.09
17,Q6S,1.9
18,Q6N,1.73
19,Q6D,2.15
20,Q6P,3.07
21,S4R,2.99
22,S4P,1.65
23,S4K,1.42
24,S4N,1.73

row,Variant,protein stability index
1,S4H,2.83
2,S4G,2.27
3,S4T,1.48
4,S4Q,1.87
5,S4Y,2.42
6,S4A,3.33
7,S4F,3.65
8,V11P,1.8
9,V11Y,1.68
10,V11G,2.43
11,V11D,2.45
12,V11A,2.07
13,V11R,1.86
14,V11H,2.49
15,V11Q,1.49
16,V11N,2.51
17,V11S,1.95
18,V11E,2.65
19,V11T,1.87
20,V11K,3.28
21,V11F,1.69
22,V11M,3.05
23,I1T,1.9
24,I1F,2.74

row,Variant,protein stability index
1,I1G,1.92
2,I1V,1.41
3,I1D,2.12
4,I1K,2.18
5,I1H,2.61
6,I1A,2.73
7,I1N,2.24
8,I1S,1.78
9,I1M,1.26
10,I1Q,1.31
11,I1L,1.5
12,I1R,1.68
13,I1Y,3.3
14,I1C,4.55
15,T2D,2.46
16,T2M,3.15
17,T2K,1.87
18,T2C,3.3
19,T2Q,2.53
20,T2H,1.45
21,T2L,2.27
22,T2G,1.77
23,T2S,1.77
24,T2E,1.69

row,Variant,protein stability index
1,T2A,1.43
2,T2W,2.62
3,T2F,2.43
4,L20C,1.97
5,L20H,1.51
6,L20V,4.25
7,L20I,2.29
8,L20R,1.7
9,L20P,1.17
10,L20A,1.91
11,L20Y,3.07
12,L20S,1.03
13,L20K,1.01
14,Q3W,1.68
15,Q3K,1.95
16,Q3F,2.14
17,Q3D,1.47
18,Q3H,2.02
19,Q3E,1.07
20,Q3A,3.08
21,Q3R,1.1
22,Q3N,1.85
23,W5V,3.07
24,W5L,3.62

row,Variant,protein stability index
1,W5H,2.57
2,W5Q,1.81
3,W5F,2.29
4,W5K,3.36
5,W5T,1.48
6,W5C,2.25
7,W5N,2.86
8,W5S,2.69
9,W5I,4.28
10,W5D,2.32
11,W5R,2.21
12,W5E,2.97
13,W5A,1.86
14,W5M,1.61
15,W5P,2.56
16,W5Y,1.84
17,L19I,2.81
18,L19R,2.43
19,L19S,2.1
20,L19E,3.62
21,L19M,3.54
22,L19N,1.49
23,L19G,2.23
24,L19H,1.92

row,Variant,protein stability index
1,L19P,1.78
2,L19T,2.62
3,L19C,2.07
4,L19D,1.82
5,L19K,2.33
6,L19A,2.42
7,P23W,1.11
8,P23Q,1.93
9,P23E,1.51
10,P23D,1.42
11,P23K,2.09
12,P23G,1.32
13,P23S,1.92
14,P23F,3.34
15,P23I,2.08
16,P23C,1.6
17,P23L,1.46
18,P23N,3.05
19,P23H,1.27
20,P23A,1.34
21,V9E,2.26
22,V9Q,2.44
23,V9M,1.34
24,V9D,2.02

row,Variant,protein stability index
1,V9K,1.91
2,V9I,2.64
3,V9S,1.91
4,V9F,1.74
5,V9A,2.19
6,V9L,2.7
7,V9H,2.88
8,V9N,2.45
9,V9T,1.55
10,N22V,1.75
11,N22P,1.17
12,N22H,1.75
13,N22M,1.88
14,N22L,3.15
15,N22Y,2.09
16,N22F,1.49
17,N22R,2.33
18,N22I,2.39
19,N22K,2.17
20,N22A,2.85
21,N22S,4.3
22,N22Q,2.43
23,N22E,1.59
24,N22T,1.89

row,Variant,protein stability index
1,N22D,1.62
2,A17F,1.1
3,A17G,3.81
4,A17I,2.96
5,A17M,2.57
6,A17V,2.58
7,A17Q,1.68
8,A17N,1.7
9,A17K,1.34
10,A17H,3.03
11,A17L,2.42
12,A17D,1.76
13,A17W,2.46
14,A17S,2.46
15,A17T,2.28
16,A17R,1.66
17,A17C,3.18
18,G15F,1.97
19,G15Q,1.48
20,G15C,1.97
21,G15A,4.31
22,G15W,4.12
23,G15V,2.31
24,G15Y,1.77

row,Variant,protein stability index
1,G15N,3.33
2,G15T,1.51
3,G15H,2.03
4,G15D,1.94
5,G15P,3.81
6,G15E,2.02
7,P13K,1.65
8,P13T,1.94
9,P13D,1.86
10,P13S,2.67
11,P13L,2.69
12,P13Y,2.01
13,P13V,3.02
14,P13H,2.27
15,P13Q,2.21
16,P13N,1.74
17,P13R,1.16
18,P13I,2.67
19,P13G,1.64
20,P13M,1.91
21,Y24D,1.75
22,Y24I,2.29
23,Y24R,2.1
24,Y24F,2.47

row,Variant,protein stability index
1,Y24T,2.34
2,Y24A,1.39
3,Y24H,1.07
4,Y24S,1.34
5,Y24N,1.54
6,Y24P,1.15
7,Y24K,2.19
8,Y24Q,1.47
9,Y24C,1.71
10,Y24W,2.93
11,S8H,2.28
12,S8R,2.73
13,S8P,1.71
14,S8T,3.34
15,S8F,2.21
16,S8N,1.46
17,S8Y,1.8
18,S8G,2.39
19,S8A,1.27
20,S8E,1.54
21,S8C,1.12
22,S8D,2.65
23,V7Q,2.51
24,V7E,2.29

row,Variant,protein stability index
1,V7A,2.77
2,V7R,2.39
3,V7L,1.88
4,V7G,2.34
5,V7Y,1.86
6,V7K,1.81
7,V7P,2.7
8,V7H,2.68
9,V7S,2.12
10,V7M,2.46
11,V7C,1.6
12,V7W,1.5
13,V7F,2.22
14,V7D,2.42
15,V7N,2.38
16,V7T,2.04
17,R16I,2.26
18,R16V,1.24
19,R16T,2.14
20,R16P,2.07
21,R16Y,3.74
22,R16S,2.21
23,R16N,1.4
24,R16Q,1

row,Variant,protein stability index
1,R16F,3.25
2,R16E,1.24
3,R16L,1.69
4,R16H,1.89
5,R16D,2.88
6,R16C,4.64
7,R10G,2.89
8,R10I,3.79
9,R10D,2.05
10,R10P,1.83
11,R10N,2.63
12,R10K,2.41
13,R10F,2.62
14,R10M,2.9
15,R10H,1.5
16,R10Q,2.09
17,R10L,2.47
18,R10C,1
19,R10Y,2.12
20,R10S,1.98
21,R10W,2.02
22,R10T,1.98
23,R10E,1.32
24,R10A,1.83

row,Variant,protein stability index
1,P21D,1.56
2,P21L,2.04
3,P21K,1.64
4,P21S,1.7
5,P21G,1.76
6,P21E,1.6
7,P21Q,1.52
8,P21H,2.78
9,P21N,1.68
10,P21R,1.79
11,P21T,2.87
12,P21I,1.91
13,P21C,3.18
14,P21A,1.29
15,H18C,1.49
16,H18I,1.29
17,H18L,3.13
18,H18M,1.83
19,H18P,2.7
20,H18D,2.29
21,H18T,2.13
22,H18S,1.43
23,H18E,1.36
24,H18V,2.19

row,Variant,protein stability index
1,H18Q,2.99
2,H18N,2.99
3,H18Y,1.95
4,H18K,1.74
5,H18A,2.9
6,Q12E,2.61
7,Q12H,2.27
8,Q12T,1
9,Q12G,3.64
10,Q12P,1.72
11,Q12K,1.79
12,Q12W,2.49
13,Q12D,2.27
14,Q12Y,2.25
15,Q12F,3.49
16,Q12N,2.98
17,Q12C,1.77
18,Q12M,3.2
19,Q12A,1.16
20,Q12S,2.13
